Source: patent US20120301930A1 (YEDA RESEARCH AND DEVELOPMENT, published 2012)

Experiments:
[1] = target: T1, 11A-XBM-a chimera (catalytic module of T. fusca Xyn11A together with its adjacent XBM attached to dockerin B …); assay: affinity-based ELISA; complex formation also by non-denaturing PAGE
T1 construct: Recombinant chimera expressed in E. coli, purified on a Ni column (His-tag); also called variant Xyn11A

[2] = target: T2, 11A-a chimera (catalytic module of T. fusca Xyn11A attached directly to dockerin B from Acetivibrio …); assay: as above
T2 construct: Recombinant chimera expressed in E. coli, purified on a Ni column (His-tag)

[3] = target: T3, f-5A chimera (catalytic module of T. fusca family-5 endoglucanase Cel5A fused to a dockerin from Ruminococcus …); assay: non-denaturing PAGE mobility shift, equimolar mixture
T3 construct: Recombinant chimera expressed in E. coli; all enzyme constructs were designed to contain a His-tag; also called variant Cel5A
T3 chain: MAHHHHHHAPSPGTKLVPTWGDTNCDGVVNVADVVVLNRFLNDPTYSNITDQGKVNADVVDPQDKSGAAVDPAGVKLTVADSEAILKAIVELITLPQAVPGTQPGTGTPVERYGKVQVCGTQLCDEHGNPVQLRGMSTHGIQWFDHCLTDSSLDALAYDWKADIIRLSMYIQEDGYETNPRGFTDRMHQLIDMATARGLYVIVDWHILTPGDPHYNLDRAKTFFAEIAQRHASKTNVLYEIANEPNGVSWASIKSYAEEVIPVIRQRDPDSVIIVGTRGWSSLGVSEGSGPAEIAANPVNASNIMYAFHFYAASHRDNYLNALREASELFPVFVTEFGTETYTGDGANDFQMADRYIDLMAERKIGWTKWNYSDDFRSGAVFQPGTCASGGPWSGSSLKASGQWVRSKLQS

Measured: binding result

B1: Scaf-AF chimeric scaffoldin (cohesin 3 from A. cellulolyticus scaffoldin C, CBM3a from C. thermocellum, cohesin 1 from R. flavefaciens scaffoldin B) (other)
chain: MDLQVDIGSTSGKAGSVVSVPITFTNVPKSGIYALSFRTNFDPQKVTVASIDAGSLIENASDFTTYYNNENGFASMTFEAPVDRARIIDSDGVFATINFKVSDSAKVGELYNITTNSAYTSFYYSGTDEIKNVVYNDGKIEVIASVPTNTPTNTPANTPVSGNLKVEFYNSNPSDTTNSINPQFKVTNTGSSAIDLSKLTLRYYYTVDGQKDQTFWCDHAAIIGSNGSYNGITSNVKGTFVKMSSSTNNADTYLEISFTGGTLEPGAHVQIQGRFAKNDWSNYTQSNDYSFKSASQFVEWDQVTAYLNGVLVWGKEPGGSVVPSTQPVTTPPATTKPPATTIPPSEDPAGGLSAVQPNVSLGEVLDVSANRTAADGTVEWLIPTVTAAPGQTVTMPVVVKSSSLAVAGAQFKIQAATGVSYSSKTDGDAYGSGIVYNNSKYAFGQGAGRGIVAADDSVVLTLAYTVPADCAEGTYDVKWSDAFVSDTDGQNITSKVTLTDGAIIVHHHHHH
binds: all assays above
